The supplement of paper PMC7877785
± gives the uncertainty stated by the source.

Assay: self-splicing fitness, log relative to wild type (ln ratio); higher = more splicing; Tetrahymena group I intron in knt gene, E. coli kanamycin selection, DiMSum; sequences stand for … in CUCUCU…GGAGGGAAAAGUUAUCAGGCAUGCACCUGGUAGCUAGUCUUUAAACCAAUAGAUUGCAUCGGUUUAAAAGGCAAGACCGUCAAAUUGCGGGAAAGGGGUCAACAGCCGUUCAGUACCAAGUCUCAGGGGAAACUUUGAGAUGGCCUUGCAAAGGGUAUGGUAAUAAGCUGACGGACAUGGUCCUAACCACGCAGCCAAGUCCUAAGUCAACAGAUCUUCUGUUGAUAUGGAUGCAGUUCACAGACUAAAUGUCGGUCGGGGAAGAUGUAUUCUUCUCAUAAGAUAUAGUCGGACCUCUCCUUAAUGGGAGCUAGCGGAUGAAGUGAUGCAACACUGGAGCCGCUGGGAACUAAUUUGUAUGCGAAAGUAUAUUGAUUAGUUUUGGAGUACUCGUGGUCG
Outline: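 A randomised library covering all eight P1ex-region intron nucleotides was built with the intron in the knt kanamycin-resistance gene on pET-22b(+) and held in E. coli BL21(DE3). Cells were grown overnight at 37°C or 30°C on LB agar, with or without 25 μg/mL kanamycin, plus 100 μg/mL carbenicillin, 50 μM IPTG and 0.2% rhamnose, and pooled colonies were amplicon-sequenced on an Illumina HiSeq 2500. DiMSum fitness is the error-weighted combination of wild-type-normalised replicate fold changes, kanamycin versus none.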

| Sequence | self-splicing fitness (ln) (30 °C) | self-splicing fitness (ln) (37 °C) |
| --- | --- | --- |
| CUGUAGCAAUAUUACGAUUA | -2.74 ± 0.33 | -1.24 ± 0.4 |
| CUGUAGCAAUAUUACGAUUG | -1.2 ± 0.23 | 0.185 ± 0.22 |
| CUGUAGCAAUAUUACGCAAC | – | -2.99 ± 0.47 |
| CUGUAGCAAUAUUACGCACG | -0.568 ± 0.12 | -0.0751 ± 0.12 |
| CUGUAGCAAUAUUACGCAUC | -3.45 ± 0.32 | -2.69 ± 0.34 |
| CUGUAGCAAUAUUACGCCCA | -1.79 ± 0.28 | -2.56 ± 0.27 |
| CUGUAGCAAUAUUACGCCCG | -0.124 ± 0.26 | -0.221 ± 0.31 |
| CUGUAGCAAUAUUACGCGCG | -0.982 ± 0.12 | -0.117 ± 0.14 |
| CUGUAGCAAUAUUACGCGGA | -2.92 ± 0.23 | -2.91 ± 0.24 |
| CUGUAGCAAUAUUACGGAGU | -3.65 ± 0.23 | -2.74 ± 0.24 |
| CUGUAGCAAUAUUACGGAUA | -2.3 ± 0.28 | -2.22 ± 0.33 |
| CUGUAGCAAUAUUACGGCAU | -3.45 ± 0.31 | -1.86 ± 0.27 |
| CUGUAGCAAUAUUACGGCGG | -2.82 ± 0.27 | -1.93 ± 0.32 |
| CUGUAGCAAUAUUACGGUUG | -0.904 ± 0.081 | -0.833 ± 0.087 |
| CUGUAGCAAUAUUACGUACC | – | -0.725 ± 0.38 |
| CUGUAGCAAUAUUACGUCGU | -2.99 ± 0.31 | -1.8 ± 0.28 |
| CUGUAGCAAUAUUACGUCUC | -4.07 ± 0.39 | – |
| CUGUAGCAAUAUUACGUGAA | – | -2.71 ± 0.29 |
| CUGUAGCAAUAUUACGUGUC | -2.97 ± 0.27 | -1.29 ± 0.17 |
| CUGUAGCAAUAUUACGUUCU | -3.72 ± 0.34 | -2.94 ± 0.4 |
| CUGUAGCAAUAUUACGUUUG | -1.44 ± 0.085 | -0.284 ± 0.1 |
| CUUAAGCAAUAUUACGACAG | 0.325 ± 0.096 | -0.266 ± 0.12 |
| CUUAAGCAAUAUUACGACGU | -2.75 ± 0.16 | -1.44 ± 0.15 |
| CUUAAGCAAUAUUACGAGGA | -2.64 ± 0.34 | -3.43 ± 0.46 |
| CUUAAGCAAUAUUACGAGGG | -2.95 ± 0.21 | -2.85 ± 0.29 |
| CUUAAGCAAUAUUACGAGUU | – | -2.42 ± 0.36 |

| Sequence | self-splicing fitness (ln) (30 °C) | self-splicing fitness (ln) (37 °C) |
| --- | --- | --- |
| CUUAAGCAAUAUUACGAUUG | -1.68 ± 0.12 | -1.11 ± 0.13 |
| CUUAAGCAAUAUUACGCAUG | -2.35 ± 0.12 | -1.5 ± 0.13 |
| CUUAAGCAAUAUUACGCCUG | -2.06 ± 0.1 | -0.858 ± 0.089 |
| CUUAAGCAAUAUUACGCGGA | -1.74 ± 0.25 | -2.58 ± 0.44 |
| CUUAAGCAAUAUUACGGAUA | -1.88 ± 0.36 | – |
| CUUAAGCAAUAUUACGGCUA | -2.73 ± 0.45 | – |
| CUUAAGCAAUAUUACGGCUG | -1.38 ± 0.13 | -1.07 ± 0.17 |
| CUUAAGCAAUAUUACGGGUG | -0.609 ± 0.049 | 0.489 ± 0.07 |
| CUUAAGCAAUAUUACGUAUU | -4.4 ± 0.31 | -2.25 ± 0.23 |
| CUUAAGCAAUAUUACGUGAA | -2.87 ± 0.12 | -2.55 ± 0.29 |
| CUUAAGCAAUAUUACGUGGA | -3.7 ± 0.18 | -3.42 ± 0.16 |
| CUUAAGCAAUAUUACGUGGU | -4 ± 0.21 | -2.35 ± 0.2 |
| CUUAAGCAAUAUUACGUGUA | -3.17 ± 0.14 | -2.64 ± 0.17 |
| CUUAAGCAAUAUUACGUUAC | -2.2 ± 0.19 | -2.67 ± 0.34 |
| CUUAAGCAAUAUUACGUUUA | -2.81 ± 0.18 | -2.6 ± 0.24 |
| CUUCAGCAAUAUUACGAAGA | -3.72 ± 0.4 | -2.33 ± 0.21 |
| CUUCAGCAAUAUUACGAUAG | -0.458 ± 0.07 | -0.818 ± 0.1 |
| CUUCAGCAAUAUUACGAUCA | – | -1.38 ± 0.32 |
| CUUCAGCAAUAUUACGAUCG | -0.136 ± 0.044 | 0.234 ± 0.069 |
| CUUCAGCAAUAUUACGCAAU | -4.04 ± 0.37 | -2.04 ± 0.3 |
| CUUCAGCAAUAUUACGCCCA | -1.53 ± 0.31 | -0.354 ± 0.26 |
| CUUCAGCAAUAUUACGCCCG | -0.156 ± 0.12 | -0.17 ± 0.15 |
| CUUCAGCAAUAUUACGCCGA | – | -2.47 ± 0.31 |
| CUUCAGCAAUAUUACGCCUA | – | -2.38 ± 0.32 |
| CUUCAGCAAUAUUACGCGAG | -3.15 ± 0.2 | -1.91 ± 0.2 |
| CUUCAGCAAUAUUACGCGGU | -2.21 ± 0.096 | -0.649 ± 0.095 |

| Sequence | self-splicing fitness (ln) (30 °C) | self-splicing fitness (ln) (37 °C) |
| --- | --- | --- |
| CUUCAGCAAUAUUACGGCAA | -2.87 ± 0.48 | -1.92 ± 0.41 |
| CUUCAGCAAUAUUACGGCGC | -3.07 ± 0.13 | -3.29 ± 0.19 |
| CUUCAGCAAUAUUACGGCUU | -3.25 ± 0.16 | -3.2 ± 0.26 |
| CUUCAGCAAUAUUACGGGCU | -3.81 ± 0.27 | -2.83 ± 0.31 |
| CUUCAGCAAUAUUACGUAAU | -2.76 ± 0.13 | -0.639 ± 0.1 |
| CUUCAGCAAUAUUACGUACC | -2.36 ± 0.3 | -2.12 ± 0.24 |
| CUUCAGCAAUAUUACGUCUU | -3.19 ± 0.16 | -3.67 ± 0.42 |
| CUUCAGCAAUAUUACGUUAU | -3.2 ± 0.26 | -2.14 ± 0.28 |
| CUUCAGCAAUAUUACGUUGA | -3.08 ± 0.25 | -2.85 ± 0.24 |
| CUUCAGCAAUAUUACGUUUG | -1.87 ± 0.082 | -1.24 ± 0.091 |
| CUUGAGCAAUAUUACGACAA | – | -2.84 ± 0.49 |
| CUUGAGCAAUAUUACGACGG | -1.97 ± 0.2 | -1.52 ± 0.26 |
| CUUGAGCAAUAUUACGCAAU | -3.44 ± 0.32 | -2.77 ± 0.38 |
| CUUGAGCAAUAUUACGCAGC | -2.02 ± 0.3 | -0.712 ± 0.28 |
| CUUGAGCAAUAUUACGCAUA | -3.01 ± 0.36 | – |
| CUUGAGCAAUAUUACGCCAA | -3.52 ± 0.25 | -2.09 ± 0.32 |
| CUUGAGCAAUAUUACGGGGC | -3.82 ± 0.2 | -0.729 ± 0.17 |
| CUUGAGCAAUAUUACGGGGU | -3.14 ± 0.17 | -3.37 ± 0.27 |
| CUUGAGCAAUAUUACGUACU | -4.15 ± 0.42 | -3.49 ± 0.39 |
| CUUGAGCAAUAUUACGUAGG | -1.79 ± 0.15 | -0.65 ± 0.15 |
| CUUGAGCAAUAUUACGUCAA | -3.45 ± 0.21 | -2.19 ± 0.23 |
| CUUGAGCAAUAUUACGUCGA | -1.25 ± 0.24 | – |
| CUUGAGCAAUAUUACGUGAU | -4.13 ± 0.21 | -1.96 ± 0.15 |
| CUUGAGCAAUAUUACGUGGG | -3.3 ± 0.38 | -3.17 ± 0.27 |
| CUUUAGCAAUAUUACGAACG | 0.602 ± 0.16 | 0.157 ± 0.19 |
| CUUUAGCAAUAUUACGAAUA | -3.48 ± 0.48 | – |

| Sequence | self-splicing fitness (ln) (30 °C) | self-splicing fitness (ln) (37 °C) |
| --- | --- | --- |
| CUUUAGCAAUAUUACGAAUG | 0.423 ± 0.14 | -0.306 ± 0.17 |
| CUUUAGCAAUAUUACGAGUA | -2.85 ± 0.22 | -3.63 ± 0.42 |
| CUUUAGCAAUAUUACGAUUU | -2.66 ± 0.18 | -2.72 ± 0.3 |
| CUUUAGCAAUAUUACGCCUG | -0.484 ± 0.11 | -0.204 ± 0.14 |
| CUUUAGCAAUAUUACGCCUU | -2.77 ± 0.31 | -2.94 ± 0.43 |
| CUUUAGCAAUAUUACGCGCA | -2.5 ± 0.31 | -1.77 ± 0.42 |
| CUUUAGCAAUAUUACGCGCG | -1.05 ± 0.14 | -0.656 ± 0.17 |
| CUUUAGCAAUAUUACGCUUU | -2.36 ± 0.36 | -1.45 ± 0.41 |
| CUUUAGCAAUAUUACGGAUC | -3.81 ± 0.35 | -1.53 ± 0.18 |
| CUUUAGCAAUAUUACGGCCA | – | -0.666 ± 0.5 |
| CUUUAGCAAUAUUACGGUCC | – | -1.77 ± 0.32 |
| CUUUAGCAAUAUUACGUGCG | -2.29 ± 0.14 | -1.12 ± 0.12 |
| CUUUAGCAAUAUUACGUGGC | – | -2.47 ± 0.44 |
| CUUUAGCAAUAUUACGUUUC | – | -2.15 ± 0.23 |
| GAAAAGCAAUAUUACGAGAA | -3.21 ± 0.48 | -1.11 ± 0.23 |
| GAAAAGCAAUAUUACGAUAC | -1.21 ± 0.25 | -0.873 ± 0.22 |
| GAAAAGCAAUAUUACGAUCC | -1 ± 0.11 | -0.724 ± 0.15 |
| GAAAAGCAAUAUUACGCAAA | -0.0354 ± 0.26 | -1.79 ± 0.32 |
| GAAAAGCAAUAUUACGCAAU | -2.28 ± 0.12 | -1.41 ± 0.17 |
| GAAAAGCAAUAUUACGCAGG | -2.07 ± 0.076 | -1.85 ± 0.087 |
| GAAAAGCAAUAUUACGCCAU | -2.84 ± 0.15 | -1.57 ± 0.15 |
| GAAAAGCAAUAUUACGCCGU | -1.75 ± 0.097 | -0.396 ± 0.1 |
| GAAAAGCAAUAUUACGCGCG | -0.276 ± 0.076 | -0.478 ± 0.11 |
